The results in this text go back to patent US20220185908A1.

Where two headings read alike, the source gives them in different places.

Assay [1] has as its target CD38 on cells (Raji, Daudi, REH, CD38-transfected HEK293) (human) (UniProt P28907). The experiment in a line: flow cytometry, Raji cells; top asymptote fixed at about the maximum response of Darzalex. On the technique in general: In flow cytometry, cells or beads pass a laser one at a time.
For assay [2] the target is unchanged. Put plainly: flow cytometry, Raji cells expressing CD19 and CD38.
For assay [3] the target is unchanged. The description is as above. This is another data set of the same source.

Turning to Darzalex ® (CD38 control) (antibody), the Adjusted EC50 in assay [1] came to 1.27 nM. In assay [2], the EC50 is 0.195 µg/mL and the Max MFI came to 4.02e+06 MFI. The EC50 in assay [3] came to 1.27 nM.

For orientation: EC50 means the midpoint of the concentration-response curve. A low value points to a more potent agent.
